Experimental data published in US20200407708A1.

Molecular target: streptavidin (UniProt P22629)
Assay: gel shift with streptavidin

Chain of UniProt P22629 (P22629 37-163 limits assumed): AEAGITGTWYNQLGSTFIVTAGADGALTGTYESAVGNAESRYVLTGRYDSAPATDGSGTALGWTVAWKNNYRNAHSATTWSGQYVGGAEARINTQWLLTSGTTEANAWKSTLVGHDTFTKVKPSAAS

biotinylated SpyCatcher002 (S50C)
percent of protein biotinylated (shifted in the presence of streptavidin): 90%
